Experimental data as given in IntAct's records for PubMed 16616186.

B1: Rho guanine nucleotide exchange factor 9 (Rattus norvegicus (Rat)), Q9QX73 (parent)
chain: MQWIRGGSGMLITGDSIVSAEAVWDHVTMANRGVAFKAGDVIKVLDASNKDWWWGQIDDEEGWFPASFVRLWVNQEDGVEEGPSDVQNGHLDPNSDCLCLGRPLQNRDQMRANVINEIMSTERHYIKHLKDICEGYLKQCRKRRDMFSDEQLKVIFGNIEDIYRFQMGFVRDLEKQYNNDDPHLSEIGPCFLEHQDGFWIYSEYCNNHLDACMELSKLMKDSRYQHFFEACRLLQQMIDIAIDGFLLTPVQKICKYPLQLAELLKYTAQDHSDYRYVAAALAVMRNVTQQINERKRRLENIDKIAQWQASVLDWEGDDILDRSSELIYTGEMAWIYQPYGRNQQRVFFLFDHQMVLCKKDLIRRDILYYKGRIDMDKYEVIDIEDGRDDDFNVSMKNAFKLHNKETEEVHLFFAKKLEEKIRWLRAFREERKMVQEDEKIGFEISENQKRQAAMTVRKASKQKGRVGEEENQSLELKRACEVLQRLWSPGKKS
partner: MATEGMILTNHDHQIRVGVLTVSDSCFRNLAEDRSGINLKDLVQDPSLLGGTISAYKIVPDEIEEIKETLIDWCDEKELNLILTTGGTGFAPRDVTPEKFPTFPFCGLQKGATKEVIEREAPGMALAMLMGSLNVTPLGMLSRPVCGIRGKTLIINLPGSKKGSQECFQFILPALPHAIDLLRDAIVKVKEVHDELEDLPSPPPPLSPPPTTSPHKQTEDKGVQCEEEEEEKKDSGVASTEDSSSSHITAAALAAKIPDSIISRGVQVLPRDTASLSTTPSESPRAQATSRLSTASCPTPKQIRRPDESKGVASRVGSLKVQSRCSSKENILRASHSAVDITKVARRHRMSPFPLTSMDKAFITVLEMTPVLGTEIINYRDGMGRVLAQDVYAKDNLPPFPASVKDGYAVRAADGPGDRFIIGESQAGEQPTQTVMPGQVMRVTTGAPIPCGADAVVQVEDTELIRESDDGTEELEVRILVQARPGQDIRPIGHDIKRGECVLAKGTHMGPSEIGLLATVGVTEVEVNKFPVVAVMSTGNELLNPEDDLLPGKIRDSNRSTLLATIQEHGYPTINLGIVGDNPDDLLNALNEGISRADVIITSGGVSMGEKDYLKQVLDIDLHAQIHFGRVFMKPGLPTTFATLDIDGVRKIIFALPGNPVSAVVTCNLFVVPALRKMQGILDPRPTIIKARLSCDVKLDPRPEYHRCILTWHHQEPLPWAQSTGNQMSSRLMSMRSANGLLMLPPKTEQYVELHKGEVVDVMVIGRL

Variants of: B1
Conditions: with geph_rat Gphn

| Variant | effect of a mutation on the interaction |
| --- | --- |
| R107A;D108A;E117A | with no effect |
| R111A | disrupting interaction |

Variants of: B1
Conditions: with geph_rat Gphn
Remark: another data set of the same source

| Variant | effect of a mutation on the interaction |
| --- | --- |
| R107A;D108A;E117A | disrupting interaction strength |
